Results: article PMC3093317 (Molecular Biology of the Cell, 2011)

Columns and labels:
[1] = target: HA-tagged YadA-MA expressed in E. coli (Yersinia enterocolitica) (UniProt P0C2W0); test: SDS-PAGE of the SDS-stable oligomer with monomerization by boiling in urea
[2] = target: the molecule itself; test: as above

| Molecule | stoichiometry N [1] | stoichiometry N [2] |
| --- | --- | --- |
| HA-tagged YadA-MA expressed in E. coli (from UniProt P0C2W0 335-422) (domain or fragment) | 3 |  |
| HA-tagged YadA-MA-S417G, expressed in yeast (domain or fragment) FHQLDNRLDKLDTRVDKGLASSAALNSLFQPYGVGKVNFTAGVGGYRSSQALAIGSGYRVNESVALKAGVAYAGSSDVMYNAGFNIEW |  | 3 |
